Test results reported in patent US20170349663A1 (Memorial Sloan Kettering, published 2017).

Target: full-length human EphA2 protein on cells (human, UniProt P29317 24-976)
Assay: cell-based or functional assay

full-length human EphA2 protein on cells, sequence (P29317 24-976): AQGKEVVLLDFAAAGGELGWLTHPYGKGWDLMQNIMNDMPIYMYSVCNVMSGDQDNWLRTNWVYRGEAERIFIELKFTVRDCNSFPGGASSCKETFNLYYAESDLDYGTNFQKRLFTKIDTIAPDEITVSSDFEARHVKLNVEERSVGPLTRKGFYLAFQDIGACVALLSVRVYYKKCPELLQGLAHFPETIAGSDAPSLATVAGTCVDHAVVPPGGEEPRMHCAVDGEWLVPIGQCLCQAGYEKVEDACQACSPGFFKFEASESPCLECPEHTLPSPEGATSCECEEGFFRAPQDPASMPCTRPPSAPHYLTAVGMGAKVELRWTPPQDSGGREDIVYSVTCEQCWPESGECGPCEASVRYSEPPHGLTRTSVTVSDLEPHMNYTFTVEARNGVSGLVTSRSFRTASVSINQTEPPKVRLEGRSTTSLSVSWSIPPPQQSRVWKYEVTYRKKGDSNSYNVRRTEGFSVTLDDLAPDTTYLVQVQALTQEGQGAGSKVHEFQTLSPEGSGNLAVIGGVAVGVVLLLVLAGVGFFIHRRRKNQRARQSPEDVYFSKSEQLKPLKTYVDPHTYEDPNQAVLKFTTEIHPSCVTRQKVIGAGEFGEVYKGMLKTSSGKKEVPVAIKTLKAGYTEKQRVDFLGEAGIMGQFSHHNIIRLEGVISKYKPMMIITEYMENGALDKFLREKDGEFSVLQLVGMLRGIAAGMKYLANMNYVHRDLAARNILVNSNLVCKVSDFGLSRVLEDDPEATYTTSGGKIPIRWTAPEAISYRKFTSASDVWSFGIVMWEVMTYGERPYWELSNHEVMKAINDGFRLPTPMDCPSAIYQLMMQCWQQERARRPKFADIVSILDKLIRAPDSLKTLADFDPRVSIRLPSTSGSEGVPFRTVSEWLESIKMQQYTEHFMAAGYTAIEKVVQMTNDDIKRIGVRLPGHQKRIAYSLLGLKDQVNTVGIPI

decrease in cell number after 72 hours in culture relative to vehicle control treatment, 0.5 ug, EphA2-high AML cells: 52.6%
decrease in cell number after 72 hours in culture relative to vehicle control treatment, 1.0 ug, EphA2-high AML cells: 99.3%
B1: anti-EphA2 scFv antibody D2, monomeric scFv-6xHis (scFv)
scFv: EIVLTQSPGTLSLSPGERATLSCRASQSVSSSNLAWYQQKPGQAPRLLIYGASSRATGVPDRFSGSGSGTDFTLTISRLEPEDFAVYYCQQSSSYPWTFGQGTKVEIKRTGGGGSGAGGSGGGGTGGGGSEVQLLESGGGLVQPGGSLRLSCAASGFTFSRYWMHWVRQAPGKGLEWVSSISPYDGETNYADSVKGRFTISRDNSKNTLYLQMNSLRAEDTAVYYCARISEWYNWAVDVFDYWGQGTLVTVSSHHHHHH
